From a protein production outcome set (Wang et al. 2014) come the findings set out here.

The data set in a line: label from the status in PepcDB records.

In the case of “MRVAIAGAGAVGRSIAGELLENGHEVLLIDKAPTAISVERVPMAEWLLADACEITSLDEAALQRCNVVIAATGDDKVNLVVSLLAKTEYGVPRVVARVNNPKNEWLFNESWGVDVAVSTPRLMSALVEEAVSVGDLVRLLRFSHGDANLVELTLPEESALAGTQVGDVQWPEDTSLVTIIRGTRVLTPSREDSLEAGDELLFVAAQAREEQLEDLLSARRQPDGTL”, the protein production entry is “failed”.
With “MRVAVVGATGAVGREILKVLEARNFPLSELRLYASPRSAGVRLAFRGEEIPVEPLPEGPLPVDLVLASAGGGISRAKALVWAEGGALVVDNSSAWRYEPWVPLVVPEVNREKIFQHRGIIANPNCTTAILAMALWPLHRAFQAKRVIVATYQAASGAGAKAMEELLTETHRFLHGEAPKAEAFAHPLPFNVIPHIDAFQENGYTREEMKVVWETHKIFGDDTIRISATAVRVPTLRAHAEAVSVEFARPVTPEAAREVLKEAPGVEVVDEPEAKRYPMPLTASGKWDVEVGRIRKSLAFENGLDFFVVGDQLLKGAALNAVQIAEEWLKGA” the entry was “not failed”.
On to “MRVCAVVVTYNRKDLLVECLEALRRQTGPLDAIYIIDNASTDGTPELLRSRGYRDGAVIENPLDGSEIVIRYVRLPVNTGGAGGFHEGVKRAFHDGYDWIWLMDDDAEPLPDSLQGLLRYADDDTAALANLKVSPDGRPQYIHRGFFDFDSFGTFVRPVTEDDLREETLEIDHASFVGILINSDSVREIGFPRKEFFLHYDDVEYCLRLRSTGKIILVPGSLILHKEAAERGNLTKGLFGREIPVVPYDKLWLRYYGVRNSIWLRRKEMGRARLFIFMVRAILLSVAAQIITGIREKPFRRVRFILSAYSDGLRGRFDNEKPRRILYG”, for which the protein production result was “failed”.
The result for “MRVFLCGPLASDGLRQRVLGSAPDGVPARLADHALGAAGATVSPMPAPGASVAGLVMELGAEAGARLLHYQTATGHEARTLAVAGAPALVFFAPPEGLEPWDEAAWGALWGPIVVATAGDVMALWPEVPAERIARRYRLMLVQGASRVRAAADPGPARRRHAAQPGDVRIVRRSQPYANFFAVEEYDLSFRSFGGGMSPTLNRAVFISGDAVTVVPYDPVRDRVLLIEQFRPGPLGRGDAQPWLLEPIAGRVDPGETPEAAARREAVEEAGLDLGALLPVASYYPTPAAKAEYLYSYVALAQLDDGIEGIFGMEGEGEDIRGHLMSFDEMMALIRSGEICNGPLLLTALWLDRERPRLRGE” reads “failed”; that for “MRVGIKVLGCPKNEADCEVLAGVLREGGHEIVFDVKDADVVVLDTCAFIEDAKRESIDEIFSFVDAKDQYGYKLVVKGCLVQRYYEELKKEIPEVDQWIGVADPEEIANAIENGTDLVPDQPETVYRYRKRIDLEERPYAYVKISDGCDRGCTFCSIPSFKGSLRSRSIEDITREVEDLLKEGKKEIILVAQDTTSYGIDLYRKQALPDLLRRLNSLNGEFWIRVMYLHPDHLTEEIISAMLELDKVVKYFDVPVQHGSDKILKLMGRTKSSEELKKMLSSIRERFPDAVLRTSIIVGFPGETEEDFEELKQFVEEIQFDKLGAFVYSDEEGTVAFNLKEKVDPEMAKRRQEELLLLQAEISNSRLDRFVGKKLKFLVEGKEGKFLVGRTWTEAPEVDGVVFVRGKGKIGDFLEVVIKEHDEYDMWGSVILEHHHHHH”, “not failed”.
As to “MRVISRRTSLILFSGLVFVLASMLLYLYLNSGSEQTQTYNESRDLIRQLKQQDAVWENEVLKARVAVSHNYDPLVIPLKEMKRLWARFDRREAEQGRDESDQWRDAHDGFLSAFGEKARLVEQFKSHNALLRNSLAFLPTAEDGIQAQINTMLAPNRQEVHVFVTDTYDLLLSALEFAQVTSVERAAEIEVGLGNLAVNTENLPKEFQTPLNLLSNHVALILREQPVVNRLLEQIEAIPVAERLDTITSLLDRDQQQVEKINRKNHLYTLWLSGLLMFSVICLAALLVRSFAEVRRVNNALQSANDVLEQRVEERTLALRNAQSELFNAARQAGMAEIATNVLHNVGNVLNSVNTSSDLIARTLRSSKTQGLGKAMQLFREHATDIGRFLDEDPRGRLLPGYLNQLTEAIADEQKEMAIELERMNKSIDHIKEVVATQQSYAGAKNVPEPLSVNDLVEDALRMNAGALTRHQVRVVRDFADLPLVMGDRHRLLLILINLISNAKYAMSGPGSDPRTMILRTRIVEGGLLEMSVLDEGEGIAPENLQKIFAHGFTTRKDGHGFGLHSCALAAIEMNGHLTAHSDGPGLGAVFTLRIPLIAVTEPA”, the protein production result is on record as “failed”.
The result for “MRVLVLHSHPVEESYGKALYRQTVESLQKAGHMVDGCDLYEERFDPVLSRHDRLAYHDYPENLKLVESHVERLKAAEGLVICTPIWNFGFPAILKGYFDRVWLPGVSFELVNGKVESRLRHIRKLAAVLTYGATPFRAFAAGNPPKKIVKRVLRAQINPVRPVTFLAHYDMNNCTPETRAKFLARVGGAMERF” reads “failed”; that for “MRVPLDEIDKKIIKILQNDGKAPLREISKITGLAESTIHERIRKLRESGVIKKFTAIIDPEALGYSMLAFILVKVKAGKYSEVASNLAKYPEIVEVYETTGDYDMVVKIRTKNSEELNNFLDLIGSIPGVEGTHTMIVLKTHKETTELPIK”, “not failed”.
With “MRVSCLSLPWHTPKALLHETITQTYLLWHIVLEHMDIVIVGAGRVGSRTARVVTNEDHAVTVIEQDYDRAERARTEGFDVVEGDGTSEDTLLDAGIDTADAIGALTSDLNTNFIACMVGNHHDCRTVLRIDEDYREDIYRKYADEVDEIVYPERLGAIGAKNALLGGNVTAIADLAEHLQVVQLTVTDEAPMRGYSISELELPAGARLLAFGKHDASLALPLPSETLETGDRIAVLAEFDTLDSVRQILVGNAPPTEVA”, the protein production entry is recorded as “failed”.
In the case of “MRVSVVIPARNEEAYLPSALEAVLAQTLPPFEVIVVDNASTDRTREVAEALGARVVFCGRRGVAYARQAGLLAARGEWVAMTDADSLPTPRWLERLAHKAPGAVAVYGPLRFYGVSPLEAALSEWGYRAFLNLMALLGRPNLAGANMMVLKEAALRVGGFPEVEAREDVLLGWRLKALGPVRYAGDALVLTSARRLQGGWGRFLLRQARNLLGDPRGYFGEAGERERLEHHHHHH”, the protein production entry is given as “not failed”.
As for “MRWLNRHKFLPFLAWLPQQSRASVGRDALVGLSGAILALPQSIAYALIAGLPPEYGLYAAIVPVLIACLWGSSWHLICGPTAAISIVLYVSVSPLAVPASQDYIMLILLLTFIAGVFQLLLGMMRFGALVNFVSHSVVLGFTLGAAVVIALGQMPNLLGIDLPSQTTALKSLSAVLEHRGELDKPSLMLGLLTLTLGIGLKAWVPRWPTLLIALVSSSLLVWLWPAMFGHVRVVSAFVGHLPPFSPLPLDLELILKLLPTAVAVGMLGLVNSLSIARSLSARSQQMLNANQEVRAQGLSNMVGSLFSGYLSAGSFTRAALSYEAGARSPLAGVFSALWVALFAVAGASLVSHIPIPAMAASILLICWGLVDRRGIRALLRVSRAEFFVMALTCLATLLLELQTAIYAGVLASLFFYLKRTSQPRVQQWREGDEDVLRVGGSIFFGASHYLQTRLQRTEGLRVVIDAQQINFIDYSGVEMLHQEARRLGQQGRVLVLRNARPLVIEELHKLEGPENCPILFED”, the protein production result is recorded as “failed”.
With “MRWNICVVGAGKIGQMIAALLKTSSNYSVTVADHDLAALAVLNRMGVATKQVDAKDEAGLAKALGGFDAVISAAPFFLTPIIAKAAKAAGAHYFDLTEDVAATNAVRALAEDSQT” the entry was “not failed”.
The result for “MRWRSSRLGRAPLLGALAILWFAVLLPRGGTAGAGPGARGIRRSTGVCAGSRPRPAALLRRSAKVVAGFSVFGCPATAFESCVLSPAPSNSLASVFLLCLLPGLMEETIHTVSTEAFALQAEDPDHTILDVRPIAAYNGWPLQDESRSGHVPGAKSLPLQWTQYMDWVEVLDEKGLSQNAPVTVYGYTADAAAEMADKLSRLGFEAVGVYDGFLEDWAPDPDRPLQRMERYQQLVYPEWVQRLRTGETPPGMRGDDHVLCHAHFGYRQDYEDGHIPGAIPLNTNALESPETWNRRSPEELKSALEDHGIRHDTTVVLYGRFSYPTYDQDDPAQSAGHLGAMRCAALMLYAGVEDVKILNGGISTWESAGYDVSTDDVEPAPVDDFGAEVPAHPEYMLTLDEAKALLEADDGDLVSVRSWAEFIGERSGYHYIDKTGRIPGAVFGNCGSDAYHMENYRNFDYTTREFSEIAGKWAEMGITPDKHIAFYCGTGWRGSEAFMNAYLMGWPNISVYDGGWYEWSSHPDTETATGVPENDVPA” reads “failed”.
